Test results reported in the supplement of paper PMC11865577.

The sequences below were run on TO-N3-2 (biotin conjugate) (assay: pull-down binding Z-score (relative to library population); higher = stronger binding). Settings: RNA library: Library-2.
Outline: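 A heat-folded, dye-end-labelled (Cy5 or Cy3) RNA library (1 μg, phosphate/NaCl/KCl buffer) was exposed for 60 min at 25 °C to streptavidin beads holding 100 pmol of biotin-conjugated small molecule. RNA retained on the beads was eluted in hot SDS and hybridised to a DNA barcode microarray for 20 h at 55.5 °C. Binding scores were Z-scores against the library mean and standard deviation, calculated after subtracting beads alone and taking trimmed means of replicate probes.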
For CUUGGAAAACUUCAAG, the “pull-down binding Z-score” value was -0.863.
With “CUUUACCAACCACCACAAACCUCUAUCACCUCAGCUGUUUUGCAGAGUGGUUUUAGAAAAAUGGCAUUCCCAUCUGGUAAAG” the “pull-down binding Z-score” value was -0.0806.
With “CUUUAGUAAUUACCUAAAGAGACGUGUAGUCUUUAAUGGUGUUUCCUUUAG” the “pull-down binding Z-score” value was -1.17.
With “CUUUAUUAGAAG [DMSMaPseq_invitro_SARS-CoV-2_Motif_195]” the “pull-down binding Z-score” value was -0.806.
In the case of CUUUGAUAAAGCUGGUCAAAAGACUUAUGAAAG, the “pull-down binding Z-score” value is reported as -0.816.
With “CUUUGUAUUGCAUAGACGGUGCUUUACUUACAAAGUCCUCAGAAUACAAAG” the “pull-down binding Z-score” value was -1.1.
For “CUUUUAUGUCUAUGCUAAUGGAGGUAAAGG [SHAPE_invivo_SARS-CoV-2_Motif_154]”, the “pull-down binding Z-score” value was -0.771.
In the case of “CUUUUGAAGAAG [SHAPE_invivo_SARS-CoV-2_Motif_195]”, the “pull-down binding Z-score” value is reported as -1.33.
“GAAAAGAACAAUCAAGGGUACACACCACUGGUUGUUACUCACAAUUUUGACUUCACUUUUAGUUUUAGUCCAGAGUACUCAAUGGUCUUUGUUCUUUUU” was tested, and the “pull-down binding Z-score” value was 0.0117.
“GAAAAUGACUCUAAAGAGGGUUUUUUC [SHAPE_invitro_SARS-CoV-2_Motif_382]” was tested, and the “pull-down binding Z-score” value was -0.375.
For “GAAAUACUUGUCACAUACAAUUGUUGUGAUGAUGAUUAUUUC”, the “pull-down binding Z-score” value was -1.14.
With “GAAAUUUGACACCUUCAAUGGGGAAUGUCCAAAUUUU [SHAPE_invitro_SARS-CoV-2_Motif_22]” the “pull-down binding Z-score” value was -0.988.
For GAACCUUGCUCUUCUGGAACAUACGAGGGCAAUUC, the “pull-down binding Z-score” value was -0.153.
With “GAACUCUACUAAUGUCACUAUUGCAACCUACUGUACUGGUUCUAUACCUUGUAGUGUUUGUCUUAGUGGUUUAGAUUC [DMSMaPseq_invitro_SARS-CoV-2_Motif_135]” the “pull-down binding Z-score” value was -0.471.
“GAAGAGGGAGCAAUUGUUGGCGAAAUUUCACCAUUGCCUUCUCUUC [IAV_invivo_NS1_NEP_8_Motif_10+IAV_invivo_NS1_NEP_8_Motif_10]” was tested, and the “pull-down binding Z-score” value was -0.213.
With “GAAGGCUAUUUGAACUCUACUAAUGUCACUAUUGCAACCUACUGUACUGGUUCUAUACCUUGUAGUGUUUGUCUUAGUGGUUUAGAUUCUUU” the “pull-down binding Z-score” value was -0.467.
“GAAGGUCUUAAUGACAACCUUC [SHAPE_invitro_SARS-CoV-2_Motif_33]” was tested, and the “pull-down binding Z-score” value was -1.39.
“GAAGUCACACCUUC [SHAPE_invitro_SARS-CoV-2_Motif_534]” was tested, and the “pull-down binding Z-score” value was -0.517.
“GAAGUUACAACAACUCUGGAAGAAACUAAGUUCCUCACAGAAAACUUGUUACUUU [DMSMaPseq_invitro_SARS-CoV-2_Motif_72]” was tested, and the “pull-down binding Z-score” value was 0.97.
GAAUGCGUCAUCAUCUGAAGCAUUU was tested, and the “pull-down binding Z-score” value was -0.61.
With “GAAUGGAGAACGCAGUGGGGCGCGAUCAAAACAACGUCGGCCCCAAGGUUUACCCAAUAAUACUGCGUCUUGGUUC” the “pull-down binding Z-score” value was 0.849.
With “GAAUUUACACCUUUUGAUGUUGUUAGACAAUGCUCAGGUGUUACUUUC” the “pull-down binding Z-score” value was -0.632.
With “GACAAUGUCUUAUCUACUUUUAUUUCAGCAGCUCGGCAAGGGUUUGUUGAUUCAGAUGUAGAAACUAAAGAUGUUGUU” the “pull-down binding Z-score” value was -0.776.
GACAGCAGAUAUAGUUGUC was tested, and the “pull-down binding Z-score” value was -0.0659.
GACAGUGGUUGCCUACGGGUACGCUGCUUGUC was tested, and the “pull-down binding Z-score” value was 0.01.
For “GACAUCACUUUCUUAAAGAAAGAUGCUCCAUAUAUAGUGGGUGAUGUU [DMSMaPseq_invitro_SARS-CoV-2_Multi_15_ComplexLevel_1]”, the “pull-down binding Z-score” value was -0.466.
With GACAUGUUCCUCGGAACUUGUC the “pull-down binding Z-score” value was -0.965.
For “GACAUUUUAUCUUACUAAUGAUGUUUCUUUUUUAGCACAUAUUCAGUGGAUGGUUAUGUU [DMSMaPseq_invitro_SARS-CoV-2_Motif_175]”, the “pull-down binding Z-score” value was 0.0287.
“GACCAGAAAUCAGCCCGAAUGGUU [IAV_invivo_PB1_2_Motif_17+IAV_invivo_PB1_2_Motif_17]” was tested, and the “pull-down binding Z-score” value was -0.162.
With “GACCCUAAGACUAAAAAUGUUACAAAAGAAAAUGACUCUAAAGAGGGUUUUUUCACUUACAUUUGUGGGUU” the “pull-down binding Z-score” value was -0.519.
In the case of “GACCCUGUGGGUU [SHAPE_invitro_SARS-CoV-2_Motif_242]”, the “pull-down binding Z-score” value is reported as -0.805.
With “GACGACUACUAGCGUGCCUUUGUAAGCACAAGCUGAUGAGUACGAACUUAUGUACUCAUUCGUU [SHAPE_invivo_SARS-CoV-2_Multi_65_ComplexLevel_1]” the “pull-down binding Z-score” value was 0.764.
With “GACUACUAGCGUGCCUUUGUAAGCACAAGCUGAUGAGUACGAACUUAUGUACUCAUUCGUUUCGGAAGAGACAGGUACGUUAAUAGUU [SHAPE_invitro_SARS-CoV-2_Multi_71_ComplexLevel_1]” the “pull-down binding Z-score” value was 0.672.
For “GACUCAUUCAAGGAGGAGUU [SHAPE_invivo_SARS-CoV-2_Motif_469]”, the “pull-down binding Z-score” value was -0.297.
GACUCUGAGCCAGUGCUCAAAGGAGUC was tested, and the “pull-down binding Z-score” value was -0.0814.
In the case of GACUUAUGAAAACUAUAGGUC, the “pull-down binding Z-score” value is reported as -0.341.
With GACUUCAGUAACUCAGGUUCUGAUGUU the “pull-down binding Z-score” value was -0.704.
In the case of GACUUGCUUUAGCACUCAAUUUGCUUUUGCUUGUC, the “pull-down binding Z-score” value is reported as -1.08.
In the case of GAGACAUUUAAACUGUCUU, the “pull-down binding Z-score” value is reported as -1.06.
“GAGACGGUCGGGUCCAGAUAUUCGUAUCUGUCGAGUAGAGUGUGGGCUCC [Broccoli]” was tested, and the “pull-down binding Z-score” value was 1.99.
With “GAGAGUGUUCAGACAUUCUU [SHAPE_invivo_SARS-CoV-2_Motif_44]” the “pull-down binding Z-score” value was -0.51.
For “GAGCUGCCCUGUCGGUGAAGCUC [IAV_invivo_NA_6_Motif_6+IAV_invivo_NA_6_Motif_6]”, the “pull-down binding Z-score” value was 0.384.
In the case of “GAGGCACUUAAAAUGACCAUGGCCUC [IAV_invivo_NS1_NEP_8_Motif_6+IAV_invivo_NS1_NEP_8_Motif_6]”, the “pull-down binding Z-score” value is reported as -0.305.
For “GAGGCUAUGUACACACCGCAUACAGUCUUACAGGCUGUUGGGGCUUGUGUUCUUUGCAAUUC [SHAPE_invitro_SARS-CoV-2_Motif_296]”, the “pull-down binding Z-score” value was 0.485.
For “GAGGGGUGUAUACUGCUGCCGUGAACAUGAGCAUGAAAUUGCUUGGUACACGGAACGUUCUGAAAAGAGCUAUGAAUUGCAGACACCUUUU”, the “pull-down binding Z-score” value was 0.475.
With GAGGUAAGUACGAUACUUACCUG [U1snRNP5ss-7] the “pull-down binding Z-score” value was -0.876.
For GAGGUAAGUAUGAUACUUACCUG [U1snRNP5ss-8], the “pull-down binding Z-score” value was -1.02.
In the case of GAGGUGAGCAGGAUACUUACCUG [U1snRNP5ss-16], the “pull-down binding Z-score” value is reported as 0.602.
GAGGUGAUGCAGAUACUUACCUG [U1snRNP5ss-20] was tested, and the “pull-down binding Z-score” value was 0.343.
In the case of “GAGUAUUAGGUUUGAAAACCCUUGCUACUC [SHAPE_invivo_SARS-CoV-2_Motif_136]”, the “pull-down binding Z-score” value is reported as -0.731.
For “GAGUCCUCAUCGGAGGACUU [IAV_invivo_NS1_NEP_8_Motif_11+IAV_invivo_NS1_NEP_8_Motif_11]”, the “pull-down binding Z-score” value was -1.36.
